According to patent publication US20210130436A1:

Assays:
CD28 (human) = CD28 (human) (UniProt P10747); assay: cell-based or functional assay
PD-L1 (human) = PD-L1 (human) (UniProt Q9NZQ7); assay: cell-based or functional assay
PD-L1 (human), sequence (Q9NZQ7 19-290): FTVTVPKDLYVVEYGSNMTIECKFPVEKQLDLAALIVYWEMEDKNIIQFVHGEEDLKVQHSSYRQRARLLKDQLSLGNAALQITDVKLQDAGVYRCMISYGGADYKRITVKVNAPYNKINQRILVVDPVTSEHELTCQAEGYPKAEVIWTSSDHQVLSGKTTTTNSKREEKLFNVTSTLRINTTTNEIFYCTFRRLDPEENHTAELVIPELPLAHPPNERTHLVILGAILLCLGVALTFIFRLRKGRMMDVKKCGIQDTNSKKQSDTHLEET

WT CD80 ECD-Fc (inert) (Fc fusion), sequence (chain): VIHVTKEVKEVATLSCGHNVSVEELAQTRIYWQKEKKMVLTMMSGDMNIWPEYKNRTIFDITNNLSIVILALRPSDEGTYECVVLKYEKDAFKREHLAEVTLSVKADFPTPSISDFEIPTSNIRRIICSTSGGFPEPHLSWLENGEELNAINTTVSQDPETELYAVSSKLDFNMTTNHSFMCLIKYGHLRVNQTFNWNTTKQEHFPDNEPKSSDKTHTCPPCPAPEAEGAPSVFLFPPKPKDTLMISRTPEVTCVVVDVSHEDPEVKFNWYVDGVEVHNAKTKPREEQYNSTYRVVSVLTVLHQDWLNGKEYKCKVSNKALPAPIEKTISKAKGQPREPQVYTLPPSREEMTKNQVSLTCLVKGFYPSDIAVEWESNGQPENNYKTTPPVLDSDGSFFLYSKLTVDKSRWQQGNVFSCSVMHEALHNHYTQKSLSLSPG

Row | Substance | IL-2-luciferase RLU, Jurkat + CHO/OKT3/PD-L1 aAPC, 0.6 nM (CD28 (human)) [RLU] | IL-2-luciferase RLU, Jurkat + CHO/OKT3/PD-L1 aAPC, 1.9 nM (CD28 (human)) [RLU] | IL-2-luciferase RLU, Jurkat + CHO/OKT3/PD-L1 aAPC, 5.6 nM (CD28 (human)) [RLU] | IL-2-luciferase RLU, Jurkat + CHO/OKT3/PD-L1 aAPC, 16.7 nM (CD28 (human)) [RLU] | IL-2-luciferase RLU, Jurkat + CHO/OKT3 aAPC (no PD-L1), 5.6 nM (CD28 (human)) [RLU] | IL-2-luciferase RLU, Jurkat + CHO/OKT3 aAPC (no PD-L1), 16.7 nM (CD28 (human)) [RLU] | IL-2-luciferase RLU, Jurkat + CHO/OKT3 aAPC (no PD-L1), 50 nM (CD28 (human)) [RLU] | IL-2 release, primary T cells; K562/OKT3 (No PD-L1); 1 nM (CD28 (human)) | IL-2 release, primary T cells; K562/OKT3 (No PD-L1); 10 nM (CD28 (human)) | IL-2 release, primary T cells; K562/OKT3 (No PD-L1); 100 nM (CD28 (human)) | RLU, Jurkat/IL2 reporter; K562/OKT3 aAPC, FcR Dependent Cross-Linking (No PD-L1); 0.6 nM (CD28 (human)) [RLU] | RLU, Jurkat/IL2 reporter; K562/OKT3 aAPC, FcR Dependent Cross-Linking (No PD-L1); 1.9 nM (CD28 (human)) [RLU] | RLU, Jurkat/IL2 reporter; K562/OKT3 aAPC, FcR Dependent Cross-Linking (No PD-L1); 5.6 nM (CD28 (human)) [RLU] | RLU, Jurkat/IL2 reporter; K562/OKT3 aAPC, FcR Dependent Cross-Linking (No PD-L1); 16.7 nM (CD28 (human)) [RLU] | RLU, Jurkat/IL2 reporter; K562/OKT3 aAPC, FcR Dependent Cross-Linking (No PD-L1); 50 nM (CD28 (human)) [RLU] | RLU, Jurkat/IL2 reporter; K562/OKT3/PD-L1 aAPC, Combination of FcR and/or PD-L1 Dependent Cross-Linking; 0.6 nM (PD-L1 (human)) [RLU] | RLU, Jurkat/IL2 reporter; K562/OKT3/PD-L1 aAPC, Combination of FcR and/or PD-L1 Dependent Cross-Linking; 1.9 nM (PD-L1 (human)) [RLU] | RLU, Jurkat/IL2 reporter; K562/OKT3/PD-L1 aAPC, Combination of FcR and/or PD-L1 Dependent Cross-Linking; 5.6 nM (PD-L1 (human)) [RLU] | RLU, Jurkat/IL2 reporter; K562/OKT3/PD-L1 aAPC, Combination of FcR and/or PD-L1 Dependent Cross-Linking; 16.7 nM (PD-L1 (human)) [RLU] | RLU, Jurkat/IL2 reporter; K562/OKT3/PD-L1 aAPC, Combination of FcR and/or PD-L1 Dependent Cross-Linking; 50 nM (PD-L1 (human)) [RLU] | also measured
1 | WT CD80 ECD-Fc (inert) (Fc fusion) | 518 | 474 | 505 | 462 | 436 | 412 | 420 | 8050 | 7020 | 6480 | 1340 | 1270 | 1480 | 1730 | 2200 | 692 | 705 | 847 | 875 | 1520 | 
2 | variant CD80 IgV-Fc (inert) A26E/E35D/M47L/L85Q (Fc fusion) | 509 | 618 | 886 | 1380 | 458 | 415 | 432 |  |  |  |  |  |  |  |  |  |  |  |  |  | IL-2-luciferase RLU, Jurkat + CHO/OKT3/PD-L1 aAPC, 50 nM (CD28 (human)): 2000 RLU; IL-2 release, primary T cells; K562/OKT3/PD-L1; 1 nM (PD-L1 (human)): 72; IL-2 release, primary T cells; K562/OKT3/PD-L1; 10 nM (PD-L1 (human)): 268; IL-2 release, primary T cells; K562/OKT3/PD-L1; 100 nM (PD-L1 (human)): 1460
3 | variant CD80 IgV-Fc (effector) E35D/M47I/L70M (Fc fusion) |  |  |  |  |  |  |  | 15700 | 26000 | 25300 | 1610 | 2520 | 4230 | 5370 | 5780 | 2240 | 2690 | 3650 | 3910 | 3870 | 
4 | variant CD80 IgV-Fc (effector) E23G/A26S/E35D/T62N/A71D/L72V/L85M (Fc fusion) |  |  |  |  |  |  |  | 15400 | 23500 | 27000 | 2020 | 3300 | 5050 | 7010 | 7860 | 1150 | 1950 | 3220 | 4040 | 4140 | 
5 | variant CD80 IgV-Fc (inert) E35D/M47I (Fc fusion) | 1050 | 1730 | 2790 | 3670 | 637 | 710 | 894 |  |  |  |  |  |  |  |  |  |  |  |  |  | IL-2-luciferase RLU, Jurkat + CHO/OKT3/PD-L1 aAPC, 50 nM (CD28 (human)): 3780 RLU; IL-2 release, primary T cells; K562/OKT3/PD-L1; 1 nM (PD-L1 (human)): 244; IL-2 release, primary T cells; K562/OKT3/PD-L1; 10 nM (PD-L1 (human)): 3430; IL-2 release, primary T cells; K562/OKT3/PD-L1; 100 nM (PD-L1 (human)): 8310
6 | variant CD80 IgV-Fc (inert) E35G/K54E/A71D/L72P (Fc fusion) | 529 | 489 | 554 | 504 | 417 | 475 | 440 |  |  |  |  |  |  |  |  |  |  |  |  |  | IL-2-luciferase RLU, Jurkat + CHO/OKT3/PD-L1 aAPC, 50 nM (CD28 (human)): 476 RLU; IL-2 release, primary T cells; K562/OKT3/PD-L1; 100 nM (PD-L1 (human)): 59
7 | WT CD80 IgV-Fc (effector) (Fc fusion) |  |  |  |  |  |  |  | 7170 | 7120 | 6200 | 1410 | 1350 | 1310 | 1210 | 1250 | 662 | 674 | 697 | 673 | 663 | 
8 | variant CD80 IgV-Fc (inert) E23G/A26S/E35D/T62N/A71D/L72V/L85M (Fc fusion) | 524 |  | 659 | 689 | 566 | 560 | 606 |  |  |  |  |  |  |  |  |  |  |  |  |  | IL-2-luciferase RLU, Jurkat + CHO/OKT3/PD-L1 aAPC, 50 nM (CD28 (human)): 695 RLU; IL-2 release, primary T cells; K562/OKT3/PD-L1; 100 nM (PD-L1 (human)): 102
9 | variant CD80 IgV-Fc (effector) E35G/K54E/A71D/L72P (Fc fusion) |  |  |  |  |  |  |  | 7030 | 7900 |  | 1340 | 1370 | 1380 | 1430 | 1510 | 689 | 732 | 735 | 701 | 805 | 
10 | WT CD80 ECD-Fc (effector) (from UniProt P33681 35-242) (Fc fusion) |  |  |  |  |  |  |  | 11400 | 20200 | 23100 |  |  |  |  |  |  |  |  |  |  | IL-2 release, primary T cells; K562/OKT3/PD-L1; 1 nM (PD-L1 (human)): 507; IL-2 release, primary T cells; K562/OKT3/PD-L1; 10 nM (PD-L1 (human)): 3110; IL-2 release, primary T cells; K562/OKT3/PD-L1; 100 nM (PD-L1 (human)): 8390
11 | variant CD80 IgV-Fc (inert) E35D (Fc fusion) | 456 | 465 | 625 | 995 | 412 | 480 | 448 |  |  |  |  |  |  |  |  |  |  |  |  |  | IL-2-luciferase RLU, Jurkat + CHO/OKT3/PD-L1 aAPC, 50 nM (CD28 (human)): 1610 RLU; IL-2 release, primary T cells; K562/OKT3/PD-L1; 10 nM (PD-L1 (human)): 210; IL-2 release, primary T cells; K562/OKT3/PD-L1; 100 nM (PD-L1 (human)): 2740
12 | Fc only Control (inert Fc) (from UniProt P0DOX5 218-448) |  |  |  |  |  |  |  | 7040 | 6340 | 5510 | 1400 | 1390 | 1390 | 1370 | 1370 | 689 | 675 | 666 | 694 | 679 | IL-2 release, primary T cells; K562/OKT3/PD-L1; 10 nM (PD-L1 (human)): 143
13 | variant CD80 IgV-Fc (inert) E35D/M43L/L70M (Fc fusion) | 479 | 525 | 683 | 1070 | 396 | 439 | 515 |  |  |  |  |  |  |  |  |  |  |  |  |  | IL-2 release, primary T cells; K562/OKT3/PD-L1; 10 nM (PD-L1 (human)): 52
14 | variant CD80 IgV-Fc (effector) H18Y/A26T/E35D/A71D/L85Q (Fc fusion) |  |  |  |  |  |  |  |  | 20500 | 20600 | 2080 | 2810 | 4550 | 6960 | 8750 | 1160 | 1820 | 3120 | 4330 | 5220 | 
